Measurements as given in article PMC10126157, “High concentrations of soluble endoglin can inhibit BMP9 signaling in non-endothelial cells” (Scientific Reports, 2023).

Target: T1, sENG-Fc (soluble endoglin Fc fusion) (human, UniProt P17813 26-586)
T1 construct: soluble endoglin (ENG, CD105) fused to Fc, recombinant human protein from R&D Systems; Construct limits are known only through the catalogue number; source: bought: R&D Systems (Cat.# 6578-EN), recombinant human protein
T1 sequence (looked up): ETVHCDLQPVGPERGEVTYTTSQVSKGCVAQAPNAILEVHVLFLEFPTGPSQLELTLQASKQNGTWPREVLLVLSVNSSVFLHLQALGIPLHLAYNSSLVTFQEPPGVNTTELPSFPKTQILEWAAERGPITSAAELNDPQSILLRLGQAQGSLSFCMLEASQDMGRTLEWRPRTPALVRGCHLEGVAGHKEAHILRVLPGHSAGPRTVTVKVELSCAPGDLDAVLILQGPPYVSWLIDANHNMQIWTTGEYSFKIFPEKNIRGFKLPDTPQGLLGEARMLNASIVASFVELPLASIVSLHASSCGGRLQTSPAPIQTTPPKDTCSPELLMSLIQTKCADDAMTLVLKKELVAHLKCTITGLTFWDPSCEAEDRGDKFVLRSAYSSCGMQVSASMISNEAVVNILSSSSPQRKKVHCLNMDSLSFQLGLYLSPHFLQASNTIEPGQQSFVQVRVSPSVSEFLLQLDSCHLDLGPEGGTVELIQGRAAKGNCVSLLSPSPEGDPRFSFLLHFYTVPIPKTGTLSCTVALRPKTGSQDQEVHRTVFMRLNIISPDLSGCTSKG
Test: ELISA; ActRIIA-Fc coated on MaxiSorp plates (1 ug/mL in PBS, overnight, 4 °C), blocked with 1% BSA; BMP9 (15 ng/mL) added with increasing concentrations of sENG(M), sENG(D) or sENG-Fc; bound BMP9 detected with BMP-9 DuoSet ELISA reagents
Conditions: both partners purified

binding result: binds
B1: Bone morphogenetic protein 9 (BMP9) (ligand, human, UniProt Q9UK05 320-429, looked up)
chain: SAGAGSHCQKTSLRVNFEDIGWDSWIIAPKEYEAYECKGGCFFPLADDVTPTKHAIVQTLVHLKFPTKVGKACCVPTKLSPISVLYKDDMGVPTLKYHYEGMSVAECGCR
notes: BMP9 (GDF2), recombinant human protein from R&D Systems; source: bought: R&D Systems (Cat.# 3209-BP), recombinant human protein
